Reference: patent US8242083B2, “Kinase substrates” (PerkinElmer Health Sciences, Inc., priority 2008, dated 2012)

Assays:
Assay type in all cases: biochemical
TEC = target: T1, TEC (Homo sapiens, UniProt P42680); experiment: TR-FRET kinase assay, TEC; settings: Kinase Concentration 0.5 nM; 50 nM ULight-labeled substrate, 200 micromolar ATP, 2 hours
T1 sequence (P42680 1-631): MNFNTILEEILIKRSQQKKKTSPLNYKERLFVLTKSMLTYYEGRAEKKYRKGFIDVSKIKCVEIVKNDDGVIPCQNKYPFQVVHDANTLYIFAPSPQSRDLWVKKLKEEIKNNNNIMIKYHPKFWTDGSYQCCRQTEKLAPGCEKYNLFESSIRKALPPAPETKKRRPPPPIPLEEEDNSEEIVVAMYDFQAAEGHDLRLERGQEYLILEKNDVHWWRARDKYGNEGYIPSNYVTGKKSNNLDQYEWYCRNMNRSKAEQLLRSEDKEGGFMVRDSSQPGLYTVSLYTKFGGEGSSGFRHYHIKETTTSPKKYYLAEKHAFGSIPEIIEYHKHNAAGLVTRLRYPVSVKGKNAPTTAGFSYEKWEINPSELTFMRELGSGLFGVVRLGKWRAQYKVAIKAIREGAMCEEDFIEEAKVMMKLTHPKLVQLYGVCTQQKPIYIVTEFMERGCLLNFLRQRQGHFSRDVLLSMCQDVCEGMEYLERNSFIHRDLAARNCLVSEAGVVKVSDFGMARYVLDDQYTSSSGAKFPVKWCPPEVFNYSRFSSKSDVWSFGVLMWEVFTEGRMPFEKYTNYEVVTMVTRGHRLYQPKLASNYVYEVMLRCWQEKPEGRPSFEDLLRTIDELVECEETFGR
Experimental: (§1) TR-FRET kinase assays are performed under standardized conditions: various individual kinases are incubated with 50 nM of kinase substrate BRB1 labeled with the TR-FRET acceptor dye ULight (PerkinElmer) and 200 micromolar ATP in 10 μL of kinase assay buffer (50 mM HEPES pH7.5, 10 mM MgCl2, 3 mM MnCl2, 1 mM EGTA, 2 mM DTT and 0.01% Tween-20) for 2 hours at room temperature. Reactions are stopped with EDTA, and anti-phospho-tyrosine antibodies (clone PT66) labeled with the TR-FRET europium chelate donor dye are added to a final concentration of 2 nM in a final volume of 20 μL. The TR-FRET signal emitted at 665 nm is read one hour after the addition of antibodies using a TR-FRET plate reader such as the Envision® Multilabel Plate reader (PerkinElmer). The emitted signal at 665 nm is proportional to the extent of peptide phosphorylation, Control reactions indicative of background are performed excluding ATP from the reaction.
(§2) Assay conditions are identical to those used described for FIG. 1.

JAK2 = JAK2 (Homo sapiens, UniProt O60674); experiment: TR-FRET kinase assay, JAK2; settings: Kinase Concentration 1 nM; 50 nM ULight-labeled substrate, 200 micromolar ATP, 2 hours
Experimental: as §1, §2

EphA3 = target: T2, EphA3 (Homo sapiens, UniProt P29320); experiment: TR-FRET kinase assay, EphA3; settings: Kinase Concentration 0.5 nM; 50 nM ULight-labeled substrate, 200 micromolar ATP, 2 hours
T2 sequence (P29320 21-983): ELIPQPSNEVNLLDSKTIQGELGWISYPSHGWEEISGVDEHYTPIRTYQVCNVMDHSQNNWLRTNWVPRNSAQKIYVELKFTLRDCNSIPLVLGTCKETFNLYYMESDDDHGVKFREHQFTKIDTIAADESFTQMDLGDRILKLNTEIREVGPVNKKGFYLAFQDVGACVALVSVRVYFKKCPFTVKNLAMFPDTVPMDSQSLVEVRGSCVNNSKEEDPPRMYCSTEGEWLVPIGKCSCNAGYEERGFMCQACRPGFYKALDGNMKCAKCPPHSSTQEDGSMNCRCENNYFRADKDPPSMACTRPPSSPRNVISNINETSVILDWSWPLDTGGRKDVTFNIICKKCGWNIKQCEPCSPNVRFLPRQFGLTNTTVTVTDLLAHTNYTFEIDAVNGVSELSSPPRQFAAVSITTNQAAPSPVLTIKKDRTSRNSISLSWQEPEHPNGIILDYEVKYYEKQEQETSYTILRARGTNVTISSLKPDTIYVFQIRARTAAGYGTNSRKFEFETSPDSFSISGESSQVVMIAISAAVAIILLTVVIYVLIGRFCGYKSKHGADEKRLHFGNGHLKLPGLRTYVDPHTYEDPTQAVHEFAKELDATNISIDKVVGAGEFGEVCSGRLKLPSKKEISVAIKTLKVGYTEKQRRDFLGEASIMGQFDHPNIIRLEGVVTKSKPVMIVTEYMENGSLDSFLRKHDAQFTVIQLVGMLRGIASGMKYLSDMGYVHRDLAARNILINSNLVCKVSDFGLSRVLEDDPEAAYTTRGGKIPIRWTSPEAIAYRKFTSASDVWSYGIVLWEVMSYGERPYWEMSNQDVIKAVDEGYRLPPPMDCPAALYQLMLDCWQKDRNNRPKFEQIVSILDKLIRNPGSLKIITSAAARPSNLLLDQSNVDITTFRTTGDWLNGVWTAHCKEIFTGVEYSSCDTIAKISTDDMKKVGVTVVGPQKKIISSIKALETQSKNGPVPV
Experimental: as §1, §2

TIE2 = TIE2 (Homo sapiens, UniProt Q02763); experiment: TR-FRET kinase assay, TIE2; settings: Kinase Concentration 0.5 nM; 50 nM ULight-labeled substrate, 200 micromolar ATP, 2 hours
Experimental: as §1, §2

ALK = ALK (Homo sapiens, UniProt Q9UM73); experiment: TR-FRET kinase assay, ALK; settings: Kinase Concentration 4 nM; 50 nM ULight-labeled substrate, 200 micromolar ATP, 2 hours
Experimental: as §1, §2

FGFR3 = FGFR3 (Homo sapiens, UniProt P22607); experiment: TR-FRET kinase assay, FGFR3; settings: Kinase Concentration 0.25 nM; 50 nM ULight-labeled substrate, 200 micromolar ATP, 2 hours
Experimental: as §1, §2

PDGFRβ = PDGFRβ (Homo sapiens, UniProt P09619); experiment: TR-FRET kinase assay, PDGFRβ; settings: Kinase Concentration 0.25 nM; 50 nM ULight-labeled substrate, 200 micromolar ATP, 2 hours
Experimental: as §1, §2

IGF1R = IGF1R (Homo sapiens, UniProt P08069); experiment: TR-FRET kinase assay, IGF1R; settings: Kinase Concentration 0.25 nM; 50 nM ULight-labeled substrate, 200 micromolar ATP, 2 hours
Experimental: as §1, §2

FGFR3, sequence (P22607 23-806, species assumed): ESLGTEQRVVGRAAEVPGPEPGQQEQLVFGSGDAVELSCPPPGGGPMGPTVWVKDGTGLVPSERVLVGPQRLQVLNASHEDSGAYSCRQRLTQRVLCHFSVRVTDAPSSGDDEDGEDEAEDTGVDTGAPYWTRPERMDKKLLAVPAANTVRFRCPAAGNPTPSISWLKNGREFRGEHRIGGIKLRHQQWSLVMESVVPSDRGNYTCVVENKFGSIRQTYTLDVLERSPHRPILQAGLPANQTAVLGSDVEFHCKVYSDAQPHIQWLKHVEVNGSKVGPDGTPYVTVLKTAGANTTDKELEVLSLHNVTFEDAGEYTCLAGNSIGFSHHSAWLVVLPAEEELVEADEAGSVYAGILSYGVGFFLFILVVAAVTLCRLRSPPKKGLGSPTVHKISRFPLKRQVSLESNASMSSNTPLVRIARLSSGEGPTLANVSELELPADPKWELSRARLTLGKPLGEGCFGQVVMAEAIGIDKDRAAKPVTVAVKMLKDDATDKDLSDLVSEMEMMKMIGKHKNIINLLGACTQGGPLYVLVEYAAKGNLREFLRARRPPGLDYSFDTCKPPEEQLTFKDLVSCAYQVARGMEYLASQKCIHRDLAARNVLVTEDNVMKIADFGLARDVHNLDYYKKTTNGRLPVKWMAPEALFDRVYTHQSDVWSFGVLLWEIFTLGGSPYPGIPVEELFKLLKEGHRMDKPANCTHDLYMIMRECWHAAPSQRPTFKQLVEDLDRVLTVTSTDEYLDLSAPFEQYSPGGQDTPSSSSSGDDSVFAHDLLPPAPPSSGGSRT
JAK2, sequence (O60674 whole entry, species assumed): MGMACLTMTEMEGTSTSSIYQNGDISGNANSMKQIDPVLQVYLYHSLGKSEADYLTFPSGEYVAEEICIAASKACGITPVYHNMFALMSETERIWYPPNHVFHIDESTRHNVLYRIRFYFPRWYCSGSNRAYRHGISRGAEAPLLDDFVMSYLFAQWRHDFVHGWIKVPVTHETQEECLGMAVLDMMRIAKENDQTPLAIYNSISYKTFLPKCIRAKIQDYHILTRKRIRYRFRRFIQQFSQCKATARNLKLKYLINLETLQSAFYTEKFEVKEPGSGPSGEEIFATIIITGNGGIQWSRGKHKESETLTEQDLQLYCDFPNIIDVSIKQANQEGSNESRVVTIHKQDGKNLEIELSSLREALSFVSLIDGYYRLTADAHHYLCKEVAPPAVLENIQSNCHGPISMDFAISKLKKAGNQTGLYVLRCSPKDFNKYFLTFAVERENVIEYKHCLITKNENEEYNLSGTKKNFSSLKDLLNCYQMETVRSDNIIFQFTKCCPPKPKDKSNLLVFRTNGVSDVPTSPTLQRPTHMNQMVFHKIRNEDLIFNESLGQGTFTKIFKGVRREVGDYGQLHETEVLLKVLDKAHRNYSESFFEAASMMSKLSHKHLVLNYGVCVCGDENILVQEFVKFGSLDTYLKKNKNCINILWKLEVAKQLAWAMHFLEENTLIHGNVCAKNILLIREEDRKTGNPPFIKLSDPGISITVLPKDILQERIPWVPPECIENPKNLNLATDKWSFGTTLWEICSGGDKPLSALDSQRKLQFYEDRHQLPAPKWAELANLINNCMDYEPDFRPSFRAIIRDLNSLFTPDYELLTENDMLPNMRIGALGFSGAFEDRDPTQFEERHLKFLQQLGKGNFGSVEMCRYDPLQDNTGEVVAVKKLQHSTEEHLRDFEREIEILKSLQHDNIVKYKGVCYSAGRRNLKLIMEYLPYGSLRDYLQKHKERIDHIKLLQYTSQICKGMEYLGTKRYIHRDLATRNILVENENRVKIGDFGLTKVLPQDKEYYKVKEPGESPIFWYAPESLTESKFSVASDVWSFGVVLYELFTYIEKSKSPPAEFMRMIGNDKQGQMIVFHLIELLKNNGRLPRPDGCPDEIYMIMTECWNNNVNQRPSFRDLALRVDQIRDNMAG
PDGFRβ, sequence (P09619 33-1106, species assumed): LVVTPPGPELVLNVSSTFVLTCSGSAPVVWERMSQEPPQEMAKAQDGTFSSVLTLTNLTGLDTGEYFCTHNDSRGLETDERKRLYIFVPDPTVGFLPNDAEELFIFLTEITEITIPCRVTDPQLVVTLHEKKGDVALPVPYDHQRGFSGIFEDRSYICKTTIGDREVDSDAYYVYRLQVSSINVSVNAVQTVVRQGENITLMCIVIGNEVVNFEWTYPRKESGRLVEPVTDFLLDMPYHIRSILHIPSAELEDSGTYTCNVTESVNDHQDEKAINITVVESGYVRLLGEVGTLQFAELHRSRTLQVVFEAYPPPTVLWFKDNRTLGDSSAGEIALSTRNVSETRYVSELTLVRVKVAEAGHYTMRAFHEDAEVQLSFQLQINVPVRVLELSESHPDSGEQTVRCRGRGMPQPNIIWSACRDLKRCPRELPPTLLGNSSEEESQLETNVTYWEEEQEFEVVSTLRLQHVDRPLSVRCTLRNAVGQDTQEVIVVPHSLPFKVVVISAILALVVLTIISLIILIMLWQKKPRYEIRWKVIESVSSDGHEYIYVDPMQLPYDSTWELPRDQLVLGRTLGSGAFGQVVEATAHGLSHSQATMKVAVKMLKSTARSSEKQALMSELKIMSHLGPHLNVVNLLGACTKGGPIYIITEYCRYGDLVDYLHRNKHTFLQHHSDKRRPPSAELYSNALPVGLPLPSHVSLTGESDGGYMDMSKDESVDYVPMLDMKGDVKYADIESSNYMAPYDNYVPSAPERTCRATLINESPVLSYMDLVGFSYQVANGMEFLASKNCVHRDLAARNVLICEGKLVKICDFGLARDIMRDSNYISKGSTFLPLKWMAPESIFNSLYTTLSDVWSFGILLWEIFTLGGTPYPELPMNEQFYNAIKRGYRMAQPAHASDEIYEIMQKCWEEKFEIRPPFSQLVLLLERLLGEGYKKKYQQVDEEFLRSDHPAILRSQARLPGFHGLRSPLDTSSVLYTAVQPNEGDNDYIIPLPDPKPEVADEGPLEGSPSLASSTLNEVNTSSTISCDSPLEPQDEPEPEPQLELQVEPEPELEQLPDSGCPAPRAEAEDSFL
TIE2, sequence (Q02763 23-1124, species assumed): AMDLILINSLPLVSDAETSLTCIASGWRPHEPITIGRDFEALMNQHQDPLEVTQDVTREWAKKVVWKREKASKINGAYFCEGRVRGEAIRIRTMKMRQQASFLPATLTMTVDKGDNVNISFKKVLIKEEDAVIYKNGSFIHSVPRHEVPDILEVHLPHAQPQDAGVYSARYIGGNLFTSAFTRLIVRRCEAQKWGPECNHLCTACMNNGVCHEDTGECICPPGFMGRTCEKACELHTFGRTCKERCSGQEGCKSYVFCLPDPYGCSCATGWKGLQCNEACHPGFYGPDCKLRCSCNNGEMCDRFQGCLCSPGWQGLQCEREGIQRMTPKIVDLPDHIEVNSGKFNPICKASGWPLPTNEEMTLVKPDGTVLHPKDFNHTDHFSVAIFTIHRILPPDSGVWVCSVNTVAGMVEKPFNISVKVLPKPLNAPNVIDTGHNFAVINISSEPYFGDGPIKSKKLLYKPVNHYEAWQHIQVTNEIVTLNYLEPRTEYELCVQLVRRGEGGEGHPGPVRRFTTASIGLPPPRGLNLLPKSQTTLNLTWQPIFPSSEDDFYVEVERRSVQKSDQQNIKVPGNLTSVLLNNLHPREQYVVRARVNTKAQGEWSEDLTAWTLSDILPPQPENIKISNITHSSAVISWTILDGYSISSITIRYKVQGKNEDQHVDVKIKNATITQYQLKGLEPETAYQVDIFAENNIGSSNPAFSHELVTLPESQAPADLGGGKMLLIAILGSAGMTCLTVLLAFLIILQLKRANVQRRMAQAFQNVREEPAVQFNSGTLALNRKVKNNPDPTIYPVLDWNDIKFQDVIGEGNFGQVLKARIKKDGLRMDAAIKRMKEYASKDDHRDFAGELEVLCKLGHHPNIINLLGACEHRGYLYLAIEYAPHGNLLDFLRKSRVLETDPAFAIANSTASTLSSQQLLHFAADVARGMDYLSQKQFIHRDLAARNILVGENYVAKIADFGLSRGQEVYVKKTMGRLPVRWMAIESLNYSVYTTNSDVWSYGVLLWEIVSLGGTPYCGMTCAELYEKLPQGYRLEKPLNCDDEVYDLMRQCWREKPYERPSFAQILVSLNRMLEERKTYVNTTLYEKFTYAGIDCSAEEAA

C AYE AYE AYE K EYA EYA EYA K AYA EYE R (CAYEAYEAYEKEYAEYAEYAKAYAEYER; tyrosine kinase substrate peptide) [BRB1]
Signal to Noise ratio with BRB1 Peptide (TEC): 18.6 | Signal to Noise ratio with BRB1 Peptide (JAK2): 35.5 | Signal to Noise ratio with BRB1 Peptide (EphA3): 22.4 | Signal to Noise ratio with BRB1 Peptide (TIE2): 17.7 | Signal to Noise ratio with BRB1 Peptide (ALK): 8.8 | Signal to Noise ratio with BRB1 Peptide (FGFR3): 24.4 | Signal to Noise ratio with BRB1 Peptide (PDGFRβ): 4.7 | Signal to Noise ratio with BRB1 Peptide (IGF1R): 25.1
